# ± gives the uncertainty stated by the source.
# Experiment: self-splicing fitness, log relative to wild type (ln ratio); higher = more splicing; Tetrahymena group I intron in knt gene, E. coli kanamycin selection, DiMSum; sequences stand for … in CUCUCU…GGAGGGAAAAGUUAUCAGGCAUGCACCUGGUAGCUAGUCUUUAAACCAAUAGAUUGCAUCGGUUUAAAAGGCAAGACCGUCAAAUUGCGGGAAAGGGGUCAACAGCCGUUCAGUACCAAGUCUCAGGGGAAACUUUGAGAUGGCCUUGCAAAGGGUAUGGUAAUAAGCUGACGGACAUGGUCCUAACCACGCAGCCAAGUCCUAAGUCAACAGAUCUUCUGUUGAUAUGGAUGCAGUUCACAGACUAAAUGUCGGUCGGGGAAGAUGUAUUCUUCUCAUAAGAUAUAGUCGGACCUCUCCUUAAUGGGAGCUAGCGGAUGAAGUGAUGCAACACUGGAGCCGCUGGGAACUAAUUUGUAUGCGAAAGUAUAUUGAUUAGUUUUGGAGUACUCGUGGUCG
# Procedure, shortened: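 Pooled colonies went to amplicon sequencing on an Illumina HiSeq 2500 after six replicate transformations. The plates were LB agar with 100 μg/mL carbenicillin, 50 μM IPTG and 0.2% rhamnose, with or without 25 μg/mL kanamycin, incubated overnight at 37°C or 30°C. The E. coli BL21(DE3) library had all eight P1ex-region intron nucleotides randomised, the intron placed in the knt kanamycin-resistance gene on pET-22b(+). DiMSum fitness is the error-weighted combination of replicate fold changes, kanamycin against none, normalised to wild type.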
sequence,measurement,setting,value
AUUGAGCAAUAUUACGUGUU,self-splicing fitness (ln),30 °C,-3.91 ± 0.22
same,self-splicing fitness (ln),37 °C,-2.34 ± 0.14
AAACAGCAAUAUUACGCCCC,self-splicing fitness (ln),30 °C,-1.63 ± 0.15
same,self-splicing fitness (ln),37 °C,-0.801 ± 0.19
GAUGAGCAAUAUUACGCCCA,self-splicing fitness (ln),30 °C,-1.17 ± 0.23
same,self-splicing fitness (ln),37 °C,0.487 ± 0.28
GCCAAGCAAUAUUACGUUAU,self-splicing fitness (ln),30 °C,-2.76 ± 0.14
same,self-splicing fitness (ln),37 °C,-0.784 ± 0.1
GUUGAGCAAUAUUACGAUAA,self-splicing fitness (ln),30 °C,-3.96 ± 0.46
same,self-splicing fitness (ln),37 °C,-1.94 ± 0.26
UAGCAGCAAUAUUACGAUUA,self-splicing fitness (ln),30 °C,-0.00343 ± 0.049
same,self-splicing fitness (ln),37 °C,-0.0327 ± 0.066
AGCAAGCAAUAUUACGGUUU,self-splicing fitness (ln),30 °C,-1.28 ± 0.051
same,self-splicing fitness (ln),37 °C,-0.398 ± 0.066
CCUGAGCAAUAUUACGCACU,self-splicing fitness (ln),30 °C,-4.16 ± 0.3
same,self-splicing fitness (ln),37 °C,-2.8 ± 0.24
GGGGAGCAAUAUUACGGUAA,self-splicing fitness (ln),30 °C,-2.05 ± 0.28
same,self-splicing fitness (ln),37 °C,-2.82 ± 0.3
UCCUAGCAAUAUUACGGAAU,self-splicing fitness (ln),30 °C,-3.08 ± 0.15
same,self-splicing fitness (ln),37 °C,-2.1 ± 0.21
GCGCAGCAAUAUUACGCCGG,self-splicing fitness (ln),30 °C,-2.75 ± 0.25
same,self-splicing fitness (ln),37 °C,-1.57 ± 0.31
AUCAAGCAAUAUUACGAUCC,self-splicing fitness (ln),30 °C,-2.34 ± 0.2
same,self-splicing fitness (ln),37 °C,-0.539 ± 0.21
AAUAAGCAAUAUUACGCUCA,self-splicing fitness (ln),30 °C,-0.304 ± 0.091
same,self-splicing fitness (ln),37 °C,-0.155 ± 0.12
CCGAAGCAAUAUUACGACUG,self-splicing fitness (ln),30 °C,-1.06 ± 0.12
same,self-splicing fitness (ln),37 °C,0.835 ± 0.17
UUGCAGCAAUAUUACGCUGG,self-splicing fitness (ln),30 °C,-3.51 ± 0.32
CAUGAGCAAUAUUACGUCGA,self-splicing fitness (ln),30 °C,-2.57 ± 0.33
CAAGAGCAAUAUUACGUCAC,self-splicing fitness (ln),30 °C,-3.05 ± 0.21
same,self-splicing fitness (ln),37 °C,-2.75 ± 0.23
AAACAGCAAUAUUACGGCCC,self-splicing fitness (ln),30 °C,-2.15 ± 0.2
same,self-splicing fitness (ln),37 °C,-0.625 ± 0.23
CCUCAGCAAUAUUACGGCCA,self-splicing fitness (ln),30 °C,-2.68 ± 0.33
same,self-splicing fitness (ln),37 °C,-2.62 ± 0.33
GCCAAGCAAUAUUACGUAGC,self-splicing fitness (ln),30 °C,-2.49 ± 0.14
same,self-splicing fitness (ln),37 °C,-1.31 ± 0.13
UAAUAGCAAUAUUACGCUAG,self-splicing fitness (ln),30 °C,-2.46 ± 0.12
same,self-splicing fitness (ln),37 °C,-0.773 ± 0.14
UCGGAGCAAUAUUACGACCG,self-splicing fitness (ln),30 °C,-2.42 ± 0.45
CGGAAGCAAUAUUACGAAGU,self-splicing fitness (ln),37 °C,-2.81 ± 0.44
AGAGAGCAAUAUUACGCCGA,self-splicing fitness (ln),37 °C,-1.55 ± 0.43
UUCUAGCAAUAUUACGGCUG,self-splicing fitness (ln),30 °C,-2.38 ± 0.21
same,self-splicing fitness (ln),37 °C,-1.6 ± 0.2
GCUCAGCAAUAUUACGAUCC,self-splicing fitness (ln),30 °C,-0.823 ± 0.076
same,self-splicing fitness (ln),37 °C,-0.215 ± 0.1
UUGUAGCAAUAUUACGGCCG,self-splicing fitness (ln),30 °C,-0.356 ± 0.17
same,self-splicing fitness (ln),37 °C,-0.462 ± 0.22
UUAAAGCAAUAUUACGUUAA,self-splicing fitness (ln),30 °C,-0.426 ± 0.071
same,self-splicing fitness (ln),37 °C,0.14 ± 0.091
UAUUAGCAAUAUUACGACAU,self-splicing fitness (ln),30 °C,-1.63 ± 0.017
same,self-splicing fitness (ln),37 °C,-0.705 ± 0.035
GCAGAGCAAUAUUACGCCCA,self-splicing fitness (ln),30 °C,-1.07 ± 0.28
same,self-splicing fitness (ln),37 °C,-0.895 ± 0.46
AUGGAGCAAUAUUACGCAAG,self-splicing fitness (ln),30 °C,-4.55 ± 0.42
same,self-splicing fitness (ln),37 °C,-1.09 ± 0.31
UUUUAGCAAUAUUACGCCAG,self-splicing fitness (ln),30 °C,-2.13 ± 0.47
CUAGAGCAAUAUUACGUCUA,self-splicing fitness (ln),30 °C,-1.15 ± 0.12
same,self-splicing fitness (ln),37 °C,-0.248 ± 0.18
AAUGAGCAAUAUUACGAGUC,self-splicing fitness (ln),30 °C,-4.32 ± 0.46
same,self-splicing fitness (ln),37 °C,-3.08 ± 0.47
UGCAAGCAAUAUUACGAUGA,self-splicing fitness (ln),30 °C,-0.161 ± 0.093
same,self-splicing fitness (ln),37 °C,0.0415 ± 0.097
UAAGAGCAAUAUUACGAGGC,self-splicing fitness (ln),37 °C,-1.97 ± 0.41
GAGAAGCAAUAUUACGGUCG,self-splicing fitness (ln),30 °C,-0.943 ± 0.11
same,self-splicing fitness (ln),37 °C,-0.253 ± 0.11
CAGCAGCAAUAUUACGUCAC,self-splicing fitness (ln),30 °C,-1.69 ± 0.24
same,self-splicing fitness (ln),37 °C,-2.75 ± 0.28
GCGGAGCAAUAUUACGAUGU,self-splicing fitness (ln),30 °C,-2.73 ± 0.26
same,self-splicing fitness (ln),37 °C,-1.02 ± 0.22
GCCAAGCAAUAUUACGAUCC,self-splicing fitness (ln),30 °C,-1.01 ± 0.14
same,self-splicing fitness (ln),37 °C,0.392 ± 0.18
ACGCAGCAAUAUUACGACUU,self-splicing fitness (ln),30 °C,-0.543 ± 0.077
same,self-splicing fitness (ln),37 °C,0.0674 ± 0.09
ACCGAGCAAUAUUACGACCG,self-splicing fitness (ln),30 °C,-2.92 ± 0.22
same,self-splicing fitness (ln),37 °C,-1.52 ± 0.21
UAGCAGCAAUAUUACGGCGG,self-splicing fitness (ln),30 °C,-0.483 ± 0.084
same,self-splicing fitness (ln),37 °C,-0.353 ± 0.13
CCACAGCAAUAUUACGUAUG,self-splicing fitness (ln),30 °C,-0.654 ± 0.047
same,self-splicing fitness (ln),37 °C,-0.391 ± 0.065
UGGCAGCAAUAUUACGGAGG,self-splicing fitness (ln),30 °C,-2.38 ± 0.12
same,self-splicing fitness (ln),37 °C,-1.87 ± 0.15
CUAAAGCAAUAUUACGUAGA,self-splicing fitness (ln),30 °C,-3.64 ± 0.19
same,self-splicing fitness (ln),37 °C,-4.04 ± 0.46
AUUUAGCAAUAUUACGAUAC,self-splicing fitness (ln),30 °C,-2.44 ± 0.17
same,self-splicing fitness (ln),37 °C,-1.01 ± 0.25
GGCGAGCAAUAUUACGAUAA,self-splicing fitness (ln),30 °C,-1.64 ± 0.13
same,self-splicing fitness (ln),37 °C,-0.294 ± 0.15
UGGUAGCAAUAUUACGAUGU,self-splicing fitness (ln),30 °C,-3.19 ± 0.19
same,self-splicing fitness (ln),37 °C,-2.12 ± 0.26
AGAAAGCAAUAUUACGAUUU,self-splicing fitness (ln),30 °C,-0.00992 ± 0.078
same,self-splicing fitness (ln),37 °C,0.286 ± 0.11
